Test results published in patent US20090298761A1 (MARIEL THERAPEUTICS, published 2009).

Key:
[1] = target: T1, OP-1 pro domain, truncated form (human, UniProt P18075 48-292); assay: reverse phase C18 HPLC separation of the purified soluble complex into pro domain and mature species, then N-terminal sequencing
T1 construct: also called truncated form of the pro region (beginning at residue 48); 48-292 truncated form
From the text: The complex components can be verified by running the complex-containing fraction from the S-200 or S-200HR columns over a reverse phase C18 HPLC column and eluting in an acetonitrile gradient (in 0.1% TFA), using standard procedures. The complex is dissociated by this step, and the pro domain and mature species elute as separate species. These separate species then can be subjected to N-terminal sequencing using standard procedures (see, for example, Guide to Protein Purification, M. Deutscher, ed., Academic Press, San Diego, 1990, particularly pp. 602-613), and the identity of the isolated 36 kD, 39 kDa proteins confirmed as mature morphogenic protein and isolated, cleaved pro domain, respectively.

[2] = target: T2, OP-1 pro domain, intact form (human, UniProt P18075 30-292); assay: gel filtration (Sephacryl S-200HR in TBS) of soluble OP-1 complex purified from CHO conditioned media without denaturants; complex elutes at an apparent 110 kDa
T2 construct: Cleaved pro domain of 39 kDa; also called pro region; full length pro region (residues 30-292)
T2 sequence (P18075 30-292): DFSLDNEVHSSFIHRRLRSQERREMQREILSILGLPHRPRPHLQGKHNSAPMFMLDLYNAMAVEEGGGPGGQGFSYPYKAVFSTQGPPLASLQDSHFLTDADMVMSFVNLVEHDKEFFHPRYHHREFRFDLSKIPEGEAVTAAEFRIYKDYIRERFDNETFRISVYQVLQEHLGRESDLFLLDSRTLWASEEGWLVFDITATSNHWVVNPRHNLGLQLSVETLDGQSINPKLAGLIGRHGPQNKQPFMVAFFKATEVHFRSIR
Description: The 50 mM imidazole eluate containing the soluble OP-1 complex was diluted with nine volumes of 20 mM NaPO₄ (pH 7.0) and applied to an S-Sepharose (Pharmacia) column equilibrated in 20 mM NaPO₄ (pH 7.0) with 50 mM NaCl. The S-Sepharose resin was loaded with an equivalent of 800 mL of starting conditioned media per mL of resin. After loading the S-Sepharose column was washed with equilibration buffer and eluted with 100 mM NaCl followed by 300 mM and 500 mM NaCl in 20 mM NaPO₄ (pH 7.0). The 300 mM NaCl pool was further purified using gel filtration chromatography. Fifty mls of the 300 mm NaCl eluate was applied to a 5.0×90 cm Sephacryl S-200HR (Pharmacia) equilibrated in Tris buffered saline (TBS), 50 mM Tris, 150 mM NaCl (pH 7.4). […] The apparent molecular of the soluble OP-1 was determined by comparison to protein molecular weight standards (alcohol dehydrogenase (ADH, 150 kDa), bovine serum albumin (BSA, 68 kDa), carbonic anhydrase (CA, 30 kDa) and cytochrome C (cyt C, 12.5 kDa) (see FIG. 3). The purity of the S-200 column fractions was determined by separation on standard 15% polyacrylamide SDS gels stained with coomassie blue. The identity of the mature OP-1 and the pro-domain was determined by N-terminal sequence analysis after separation of the mature OP-1 from the pro-domain using standard reverse phase C18 HPLC.

T1 sequence (P18075 48-292): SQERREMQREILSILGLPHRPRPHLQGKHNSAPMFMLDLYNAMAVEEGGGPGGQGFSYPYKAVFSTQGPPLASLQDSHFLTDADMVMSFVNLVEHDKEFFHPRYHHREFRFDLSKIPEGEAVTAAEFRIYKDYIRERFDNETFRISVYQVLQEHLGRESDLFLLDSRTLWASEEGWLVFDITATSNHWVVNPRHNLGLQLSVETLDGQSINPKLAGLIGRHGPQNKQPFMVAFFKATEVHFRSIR

binding result [1]: binds
binding result [2]: binds
B1: mature OP-1 dimer (ligand)
chain: STGSKQRSQNRSKTPKNQEALRMANVAENSSSDQRQACKKHELYVSFRDLGWQDWIIAPEGYAAYYCEGECAFPLNSYMNATNHAIVQTLVHFINPETVPKPCCAPTQLNAISVLYFDDSSNVILKKYRNMVVRACGCH
notes: Expressed in CHO cells and purified as part of the soluble OP-1 complex; The dimer runs at 35-36 kDa; also called BMP-7; osteogenic protein-1
